The values below are quoted from earlier work in paper PMC11172262.

The target in the data set is Claudin-1 (Homo sapiens) (UniProt O95832).

With Claudin-1 ECL1 (from UniProt O95832), the Kd (commonly a measure of binding affinity in units of concentration) was 47 nM.
